One may read the EC50 as the concentration needed to bring the measured effect to its halfway point. A word on the Kd: it is the concentration at which binding is half-saturated.

Here are results for three molecules from patent US20230008090A1 (WUXI BIOLOGICS IRELAND, published 2023).

Assay [1] addresses T1, human CD3 on Jurkat.2B8 (CD3+/EGFR-) cells (human, UniProt P07766 23-207).
T1 construct: whole, on cells; CD3 complex on cells; also called hCD3
In words: flow cytometry on Jurkat.2B8 (CD3+/EGFR-) cells. Here is the method:
Binding of EGFR×CD3 bispecific antibodies to human CD3 and EGFR expressing cells was determined by flow cytometry.
(§1) After washing twice with cold PBS supplemented with 1% bovine serum albumin (wash buffer), cell surface bound antibody was detected by incubating the cells with Fluorescence-labeled anti-human IgG antibody for 30 minutes at 4° C. Cells were washed twice in the same buffer and the mean fluorescence (MFI) of stained cells was measured using a FACS Canto II cytometer (BD Biosciences). Wells containing no antibody or secondary antibody only were used to establish background fluorescence. Four-parameter non-linear regression analysis was used to obtain EC₅₀ values for cell binding using GraphPad Prism software.
(A flow cytometer gives signals particle by particle.)

Assay [2] addresses T1, human CD3 on Jurkat.2B8 (CD3+/EGFR-) …. In words: FACS affinity on Jurkat.2B8 cells, quantitative beads. Here is the method: Tested antibodies were serially diluted in wash buffer (1×PBS/1% BSA) and incubated with cells at 4° C. for 1 h. […] The cells were then washed once and re-suspended in 1×PBS/1% BSA, and analyzed by flow cytometry. Fluorescence intensity will be converted to bound molecules/cell based on the quantitative beads (Quantum™ MESF Kits, Bangs Laboratories, Inc.).

In assay [3] the target is T2, cynomolgus monkey CD3 on cynomolgus monkey PBMC / T cells (cynomolgus monkey, UniProt Q95LI5 22-198).
T2 construct: whole, on cells; CD3 complex on primary cells; also called cyno CD3
T2 sequence (Q95LI5 22-198): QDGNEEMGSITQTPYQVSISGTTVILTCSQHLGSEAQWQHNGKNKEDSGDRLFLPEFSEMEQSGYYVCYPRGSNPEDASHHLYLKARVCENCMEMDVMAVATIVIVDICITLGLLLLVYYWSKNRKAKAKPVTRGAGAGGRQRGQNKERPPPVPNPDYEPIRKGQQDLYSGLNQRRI
The assay can be described thus: flow cytometry on cyno T cells (cynomolgus monkey PBMC). Here is the method: (§2) Binding of EGFR×CD3 bispecific antibodies to cynomolgus monkey CD3 and EGFR expressing cells was determined by flow cytometry.
as §1, with “Briefly, 1×10⁵ cynomolgus monkey PBMC(CD3+/EGFR−) cells or CHOK1-cynoPro1 (EGFR+/CD3−) cells were incubated for 60 minutes at 4° C. with serial dilutions of EGFR×CD3 bispecific or hIgG4 isotype control antibodies. After” for “After”

Assay [4] has as its target T3, cynomolgus monkey EGFR on CHOK1-cynoPro1 (EGFR+/CD3-) cells (cynomolgus monkey, UniProt A0A2K5WK39 25-1210).
T3 construct: whole, on cells; also called cyno EGFR
The assay can be described thus: flow cytometry on CHOK1-cynoPro1 cells. How it is done:
as §2
as §1, with “Briefly, 1×10⁵ cynomolgus monkey PBMC(CD3+/EGFR−) cells or CHOK1-cynoPro1 (EGFR+/CD3−) cells were incubated for 60 minutes at 4° C. with serial dilutions of EGFR×CD3 bispecific or hIgG4 isotype control antibodies. After” for “After”

T1 sequence (P07766 23-207): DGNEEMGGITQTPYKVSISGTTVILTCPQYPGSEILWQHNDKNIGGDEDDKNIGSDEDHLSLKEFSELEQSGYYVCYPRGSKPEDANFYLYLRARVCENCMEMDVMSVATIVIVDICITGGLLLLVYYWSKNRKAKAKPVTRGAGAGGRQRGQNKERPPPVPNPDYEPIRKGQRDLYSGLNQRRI

B1: W3448-T3U1.E17R-1.uIgG4V9 (bispecific antibody)
heavy 1: QVQLVQSGAEVKKPGSSVKVSCKASGFAFTDYYIHWVRQAPGQGLEWMGWISPGNVNTKYNENFKGRVTITADKSTSTAYMELSSLRSEDTAVYYCARDGYSLYYFDYWGQGTLVTVSSASTKGPSVFPLAPCSRSTSESTAALGCLVKDYFPEPVTVSWNSGALTSGVHTFPAVLQSSGLYSLSSVVTVPSSSLGTKTYTCNVDHKPSNTKVDKRVESKYGPPCPPCPAPEAAGGPSVFLFPPKPKDTLMISRTPEVTCVVVDVSQEDPEVQFNWYVDGVEVHNAKTKPREEQFNSTYRVVSVLTVLHQDWLNGKEYKCKVSNKGLPSSIEKTISKAKGQPREPQVYTLPPCQEEMTKNQVSLWCLVKGFYPSDIAVEWESNGQPENNYKTTPPVLDSDGSFFLYSRLTVDKSRWQEGNVFSCSVMHEALHNHYTQKSLSLSLGK
light 1: not shown
heavy 2: QVQLQESGPGLVKPSETLSLTCTVSGGSVSSGDYYWTWIRQSPGKGLEWIGHIYYSGNTNYNPSLKSRLTISIDTSKTQFSLKLSSVTAADTAIYYCVRDRVTGAFDIWGQGTMVTVLEDLKNVFPPEVAVFEPSEAEISHTQKATLVCLATGFYPDHVELSWWVNGKEVHSGVCTDPQPLKEQPALQDSRYALSSRLRVSATFWQNPRNHFRCQVQFYGLSENDEWTQDRAKPVTQIVSAEAWGRYGPPCPPCPAPEAAGGPSVFLFPPKPKDTLMISRTPEVTCVVVDVSQEDPEVQFNWYVDGVEVHNAKTKPREEQFNSTYRVVSVLTVLHQDWLNGKEYKCKVSNKGLPSSIEKTISKAKGQPREPQVCTLPPSQEEMTKNQVSLSCAVKGFYPSDIAVEWESNGQPENNYKTTPPVLDSDGSFFLVSRLTVDKSRWQEGNVFSCSVMHEALHNHYTQKSLSLSLGK
light 2: DIQMTQSPSSLSASVGDRVTITCQASQDISNYLNWYQQKPGKAPKLLIYDASNLETGVPSRFSGSGSGTDFTFTISSLQPEDIATYFCQHFDHLPLAFGGGTKVEIKPDIQNPDPAVYQLRDSKSSDKSVCLFTDFDSQTQVSQSKDSDVYITDKCVLDMRSMDFKSNSAVAWSQKSDFACANAFQNSIIPEDTFFPSPESS
notes: Four-chain Ig-like bispecific: anti-CD3 Fab arm (T3) and anti-EGFR chimeric Fab arm with TCR constant domains (U1); IgG4 Fc with S228P, F234A, L235A and knob/hole mutations already contained in the full-length entries; also called lead BsAb; anti-CD3/anti-EGFR bispecific antibody
For B1, the results for the EC50 in assay [1] and in assay [3] were 20.8 nM and 26.4 nM, respectively. Further, the Kd in assay [2] was 4.7 nM.

B2: Panitumumab (antibody, human IgG2, V domains shown)
VH: QVQLQESGPGLVKPSETLSLTCTVSGGSVSSGDYYWTWIRQSPGKGLEWIGHIYYSGNTNYNPSLKSRLTISIDTSKTQFSLKLSSVTAADTAIYYCVRDRVTGAFDIWGQGTMVTV
VL: DIQMTQSPSSLSASVGDRVTITCQASQDISNYLNWYQQKPGKAPKLLIYDASNLETGVPSRFSGSGSGTDFTFTISSLQPEDIATYFCQHFDHLPLAFGGGTKVEIK
notes: the VH end in the benchmark IgG may differ; also called Anti-EGFR antibody; anti-EGFR mAb
B2: in assay [4], the EC50 is 0.5 nM.

B3: W3311-2.306.4-z1-uIgG1K (antibody, V domains shown)
VH: QVQLVQSGAEVKKPGSSVKVSCKASGFAFTDYYIHWVRQAPGQGLEWMGWISPGNVNTKYNENFKGRVTITADKSTSTAYMELSSLRSEDTAVYYCARDGYSLYYFDYWGQGTLVTVSS
VL: DIVMTQSPDSLAVSLGERATINCKSSQSLLNSRTRKNYLAWYQQKPGQPPKLLIYWASTRQSGVPDRFSGSGSGTDFTLTISSLQAEDVAVYYCTQSHTLRTFGGGTKVEIK
notes: also called humanized anti-CD3 antibody; Humanized anti-CD3 mAb
As to B3, the EC50 stood at 0.15 nM in assay [1] and 0.21 nM in assay [3].
